Measured values as given in PMC12749748 (2025).

Biological target: VHL (Homo sapiens, UniProt P40337)
Test: SPR

VHL, sequence (P40337 whole entry): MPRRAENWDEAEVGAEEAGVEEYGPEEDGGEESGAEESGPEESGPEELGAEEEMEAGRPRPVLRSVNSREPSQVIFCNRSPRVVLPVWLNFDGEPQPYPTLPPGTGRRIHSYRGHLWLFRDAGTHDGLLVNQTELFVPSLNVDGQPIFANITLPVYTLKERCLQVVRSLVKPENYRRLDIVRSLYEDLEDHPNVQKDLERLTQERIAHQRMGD

B1: IRE1 (protein)
chain: IFGSTSTVTLPETLLFVSTLDGSLHAVSKRTGSIKWTLKEDPVLQVPTHVEEPAFLPDPNDGSLYTLGSKNNEGLTKLPFTIPELVQASPCRSSDGILYMGKKQDIWYVIDLLTGEKQQTLSSAFADSLCPSTSLLYLGRTEYTITMYDTKTRELRWNATYFDYAASLPEDDVDYKMSHFVSNGDGLVVTVDSESGDVLWIQNYASPVVAFYVWQREGLRKVMHINVAVETLRYLTFMSGEVGRITKWKYPFPKETEAKSKLTPTLYVGKYSTSLYASPSMVHEGVAVVPRGSTLPLLEGPQTDGVTIGDKGECVITPSTDVKFDPGLKSKNKLNYLRNYWLLIGHHETPLSASTKMLERFPNNLPKHRENVIPADSEKKSFEEVINLVDQTSENAPTTVSRDVEEKPAHAPARPEAPVDSMLKDMATIILSTFLLIGWVAFIITYPLSMHQQQQLQHQQFQKELEKIQLLQQQQQQLPFHPPGDTAQDGELLDTSGPYSESSGTSSPSTSPRASNHSLCSGSSASKAGSSPSLEQDDGDEETSVVIVGKISFCPKDVLGHGAEGTIVYRGMFDNRDVAVKRILPECFSFADREVQLLRESDEHPNVIRYFCTEKDRQFQYIAIELCAATLQEYVEQKDFAHLGLEPITLLQQTTSGLAHLHSLNIVHRDLKPHNILISMPNAHGKIKAMISDFGLCKKLAVGRHSFSRRSGVPGTEGWIAPEMLSEDCKENPTYTVDIFSAGCVFYYVISEGSHPFGKSLQRQANILLGACSLDCLHPEKHEDVIARELIEKMIAMDPQKRPSAKHVLKHPFFWSLEKQLQFFQDVSDRIEKESLDGPIVKQLERGGRAVVKMDWRENITVPLQTDLRKFRTYKGGSVRDLLRAMRNKKHHYRELPAEVRETLGSLPDDFVCYFTSRFPHLLAHTYRAMELCSHERLFQPYYFHEPPEPQPPVTPDAL
- Kd: > 10 µM
